Here are results for 1 molecule from patent US20150152171, “Modulation of TLR4-Signaling Pathway” (Rheinisch-Westfalische Technische, published 2015).

The data set deals with hnRNP K full-length (463 aa) (UniProt P61978 P61978:1-463). The experiment in a line: competition; 2R competes hnRNP K binding to TAK1 fragments 3, 5.1 and Akt2 fragments 1, 2. As to conditions: tags: His. The procedure: To analyze whether recombinant hnRNP K directly interacts with the Akt2 mRNA 3′UTR, UV-crosslinking experiments were performed with the [³²P]-labeled Akt2 mRNA 3′UTR subdivided in two fragments (1 and 2) (FIG. 19, lanes 1-5 and 6-10). Recombinant hnRNP K was bound strongly to both fragments (FIG. 19, lanes 1 and 6) and to the DICE, but not to the TAK1 mRNA 3′UTR fragment 4 that served as negative control (FIG. 19, lanes 11 and 12). Furthermore, it was investigated whether the short RNA consisting of 2 repeats of the DICE (2R) can be used to compete the binding of hnRNP K to the Akt2 mRNA 3′UTR fragments 1 and 2.

As to CCCCACCCUCUUCCCCAAGCCCCACCCUCUUCCCCAAG (ssRNA) [2R (two DICE repeats, 38 nt)], the binding result is recorded as “binds”.
